{"source": "patent US20160145328A1", "biological_target": "protein A (UniProt P38507)", "experiment": "Heat/Cool phage ELISA: phage-displayed VH, 80 C 10 min then 4 C 10 min, captured on coated protein A; signal as % of untreated sample", "data": [{"substance": "DP47 VH SY_31/32-DE", "values": [{"measurement": "Retained binding to protein A (%)", "result": 50, "unit": "%"}]}]}
